Measurements from US20100111957A1 (TECHNION RESEARCH AND DEVELOPMENT FOUNDATION, published 2010).

Tests used:
[1] = biological target: T1, recombinant biotinylated single-chain HLA-A2/pp65 495-503 complex (human; cytomegalovirus (CMV)); assay: SPR, Biacore 2000; biotinylated HLA-A2/pp65 on streptavidin chip
[2] = biological target: T1, recombinant biotinylated single-chain …

Binder | koff [1] [s⁻¹] | kon [1] [M⁻¹ s⁻¹] | Kd [2] [nM]
H9 Fab (soluble recombinant Fab, monomer) (Fab, V domains shown, also called Fab H9; H9 Fab monomer) VH: EVQLVQSGAEVKKPGSSVKVSCKASGGTFSSYAISWVRQAPGQGLEWMGGIIPIFGTANYAQKFQGRVTITADESTSTAYMELSSLRSEDTAVYYCARGDLYYYDSSGYPRYYFDYWGQGTLVTVSS VL: ETTLTQSPGTLSLSPGERATLSCRASQSVSSSYLAWYQQKPGQAPRLVIYGASSRATGIPDRFSGSGSGTDFTLTISRLEPEDFAVYYCQHYSTSPGFTFGQGTKLEIRR | 0.000879 | 105000 | 8
H9 whole IgG antibody (H9 Fab-derived IgG1, kappa) (antibody, V domains shown, also called H9 IgG; H9 IgG Ab) VH: EVQLVQSGAEVKKPGSSVKVSCKASGGTFSSYAISWVRQAPGQGLEWMGGIIPIFGTANYAQKFQGRVTITADESTSTAYMELSSLRSEDTAVYYCARGDLYYYDSSGYPRYYFDYWGQGTLVTVSS VL: ETTLTQSPGTLSLSPGERATLSCRASQSVSSSYLAWYQQKPGQAPRLVIYGASSRATGIPDRFSGSGSGTDFTLTISRLEPEDFAVYYCQHYSTSPGFTFGQGTKLEIRR | 0.00352 | 599000 | 5
